# Test: yeast display, Sf9 membrane polyspecificity reagent, FACS + sequencing; frameworks hold sequencing errors
# Procedure, shortened: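 Using colony PCR, genes from sorted yeast display clones were amplified, then sequenced on MiSeq at 2 × 250 and filtered by CDR length. The clones had been stained with 10% biotinylated, detergent-solubilized Sf9 membrane reagent for 1 hour at 4 °C and sorted by FACS into low and high (top ~1%) gates on anti-HA and streptavidin fluorescence. Polyreactivity labels come from the gate of origin.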
row,Sequence,polyreactivity (PSR sort gate)
1,QVQLVESCGGLVQAGGSLRLSCAASGSIFPPYAMGWYRQAPGKERELVATITIRGGSTYYADSVKGRFTISRDNAKNTVYLQMNSLKPEDTAVYYCAADYTKYYRRYYYWGQGTQVTVSS,high polyreactivity
2,QVQLVESCGGLVQAGGSLRLSCAASGSIFYGNVMGWYRQAPGKERELVAAISSSGGSTYYADSVKGRFTISRDNEKNTVYLQMNRLKPEDSAVYYCAAYWWSRVVRGSRYDYWGQGTHVTVSS,low polyreactivity
3,QVQLVESCGGLVQAGGSLRLSCAASGSTFAVNVMGWYRQAPGKERELDATITYRDGRTYYADSVKGRFTISRDNAKNTVYVQMNSLKPEVTALYYCAADWYTTYDYWGQGTQVTVSS,low polyreactivity
4,QVQLVESCGGLVQAGGSLRLSCAASGSTFDGYAMGWYRQAPVKERELVAAISASGGSTYYADSVKGRFTISRDNAKNTVYLQMNSLKPEDTAVYYCNSEPFDLWAFYYCYVYGYYHWGQGTQVTVSS,high polyreactivity
5,QVQLVESCGGLVQAGGSLRLSCAASGSTFTIYAMGWYRQAPGKERELVAVISSSGGSTYYADSVKGRFTISRDNAKNTVYLQMNSLKPEDTAVYYCAADTRYFGGYLTLYYWGQGTQVTVSS,low polyreactivity
6,QVQLVESCGGLVQAGGSLRLSCAASGSTFTVNAMGGYRQAPGKERELVAAINWSGGSTYYADSVKGRFTISRDNAKNTVYFQMNSLKPEDTAVYYCNKDREPYGYWSFDYWGQGSQVTVSS,low polyreactivity
7,QVQLVESCGGLVQAGGSLRLSCAASGSTFVHNAMGWNRQAPGKESELVAAITSRTGITYYADSLKGRFTISRDNAKNTFYLEMNSLKPEDTSVFYCAKRHVRTHRLQFDYWGQGTQVTVSS,high polyreactivity
8,QVQLVESCGGLVQAGGSLRLSCADYGRTFGKYAMGWYRQSPGKERELVAAITYRGGTTYYEDSVKGRFTISRDNAKNTLYLQMNSLKPEDTAVYYCATAPGRRYDWGQGTQVTVSS,high polyreactivity
9,QVQLVESCGGLVQAGGSLRLSCASSGRTIDSKAMGWYRQAPGKERELVAAISWSGGSTYYADSVKGRFTISRDNAKNTVYLQMNSLKPEDTAVYYCNRLGRHAPATRYGYWGQGTQVTVSS,high polyreactivity
10,QVQLVESCGGLVQTGGSLRLICAASRSNFDYYAMGWYRQAPWKETELVATNSYDFSTSYADSVKVLFTISRDNAKNTVFLQMKSLKPVDTAVYYCATDAGLYLEDAYEGPEQEFDYWGQGTQVTVSS,low polyreactivity
11,QVQLVESFGGLVQAGGSLRLICAGSGLTCYVYAMGWSRPAPGKERELVAAISQRGGSTYYADSVKGRFTISRDKAKNTVYLQMNSLKPEDTAVYYCAKYTVQYAFSHYDYWGQGTQVTVSS,high polyreactivity
12,QVQLVESGAALVQAGGSLRLSCAASASTYVSYAMGWSRQAPGKEREFVAAITWRGDSTYYADSVKGRFTISRDNAKNTVYFQMNSLKPEDTAVDYCAADGRSWRYYSPYYYWGQGTQVTVSS,low polyreactivity
13,QVQLVESGACLVQAGGSLRLSCAASGSIFGFYAMGWYRQAPGQERELVAGISYGDSSTYYADSVKGRFTISRDNAKNTVYLQMNSLKPEDTAVYYCAAGHRQKYNWGRYDYWGQGTQVTVSS,low polyreactivity
14,QVQLVESGAGFVQAGGSLRLTCAASGRNLSWYAMGWYRQAPGKEREYVAAITSSGASTYYADSVKGRFTISRDNAKNTVYLQMNSLKPEDTAVYYSNAAWRRVWFNYWGQGTQVTVSS,high polyreactivity
15,QVQLVESGAGIVQAGGSLRLSCAASGLTFANYVMGGYRQAPGKERELVAAISRSGGSTYYADSVKGRFTISRDNAKKTVNLQMNCLKPEDTAVYYCAAAAWDPKGSRYDSWGQGTQVSVSS,low polyreactivity
16,QVQLVESGAGIVQAGGSLRLSCAASGSTFYSYTMGWYRQAPGKERELVAAITSTGGRTYYADSVKGRFTISRDNAKITVYLQMNSLKPEDTAVYYCRRPYLYGMYYWGQGTQVTVSS,high polyreactivity

row,Sequence,polyreactivity (PSR sort gate)
1,QVQLVESGAGLDQAGCSLRISCAASGRIFWFYTMGWYRQAPWKERELVAAISTSGGSTYYADSVKGRFTISRDNEKNTVYLQMNSLKPDDTAVYYCAAQNGYYPQHDYWGQGTQVTVSS,high polyreactivity
2,QVQLVESGAGLDQAGGSLRLSSAASGNTFQYYAMGSYRQAAGKERELVASISYRGGRTYYADSVKGRFTISRDNAKYTVYLQMNSLKPADTAVYYCAKSKYTNVLYNYWGQGTQVTVSS,high polyreactivity
3,QVQLVESGAGLFQAGGSLRLSCAASGFTFNYYAMGGYIHAPGKERELVAAISRRGGSTYYADSVKGRFTISRDNAKNNVYLQMKSLKPEDTAVYYCNAASLKFTSPVRFGYWGQGTQVTVSS,high polyreactivity
4,QVQLVESGAGLFQAGGSLRLSCAASGFTFWWYAMGWYRQAPGKQRELVASISSGGSTNYADSVKGRFTISRDNANNTVYLQMNSLKQVDTAVFYCARRMLYSERYSARWQYVYWGQGTQVNVSS,high polyreactivity
5,QVQLVESGAGLFQAGGSLRLSCAASGSTFVSYAMGWYRQAPGKEREFVAAITWSGGSTYYADSVKGRFTISRDNAKNTVYLQMNSLKPEDTAVYYCARPYRGSPRYYYWGQGTQVTVSS,high polyreactivity
6,QVQLVESGAGLLQAGGSLRISCAASGLTFKIIAMGWYRQAPGKERELVAAISSGTSTNYADSVKGRFTISRDNAKITVYLQMNSLKPEDTAVYYCAARGFWGVAYRYYYWGQGTQVTLSS,high polyreactivity
7,QVQLVESGAGLVQAGGILRLSCAASGRTFKVYAMGWDRQAPGKERELVAAISDRGGSTYDADSVKGRFTISRDYAKNTVYLQMNSLKPVDTAVYYCSAEYARSTWRAFPELDYWGQGTQVTVSS,low polyreactivity
8,QVQLVESGAGLVQAGGRLRLSCAASGRIFDGYAMGWYRQAPGKERELVAAITASGGSTYYADSVKGRFTISRDNAKITVYLQMNSLKPEDTAVYYCAVDYSYWVEYWGQGTQVTVSS,high polyreactivity
9,QVQLVESGAGLVQAGGRLRLSCGASGRIFGRNAMGLYRQGPGKERELVAAISYSGGSTYYADSVKGRFTISRDNAKNTVYLQMNSLKPEDTAVYYCAARYTRSGYYWGQGTQVTVSS,high polyreactivity
10,QVQLVESGAGLVQAGGSHRLSCAASGRNFYWNARGWYRQAPGKEREFVAAISWSGGSTYADSVKGRFTISRDNAKNTVYLQMNSLKPEDTAVYYCAIRVSRSFRAYDYWGQGTQVTVSS,high polyreactivity
11,QVQLVESGAGLVQAGGSILLICAASGLTFYKNAMGWYRQAPAKERELVAVISSSGGSTYYADSVKGRFTISRDNAKNTVYLQMNSLKPEDTAVYYCARDLFTEYRWGLLTYDYWGQGTQVTVSS,low polyreactivity
12,QVQLVESGAGLVQAGGSLRLSCAANTKGSYRQAPGKETELVAAINTGSSTYYADSVKGRFTISRDNAKNTVYLQMNSLKPEDTSVYYCNASYPQYLEYRTRQYNYWVQGTQVTVSS,low polyreactivity
13,QVQLVESGAGLVQAGGSLRLSCAASGFIFARYAMGWSRQAPGKERELVAAITRGGGSTYYADSVKGRFTISRDTAKNTVYLQMNSLKPEDTAVYYCAAENGALVTYGYWGQGTQVTVSS,high polyreactivity
14,QVQLVESGAGLVQAGGSLRLSCAASGFSFQSYTMGWSRQAPGKERELVAAISRSGGRTYYADSVKGRFTISRDNAKNTVYLQMTSLKPEDTAVYYCAVDYRTRVDYWGQGTQLTVSS,high polyreactivity
15,QVQLVESGAGLVQAGGSLRLSCAASGFTFAKYAMGWYRQAPGKERELVATIRRSDDNTYYADSVKGRFTISRDNAKNTVYLQMNSLKPEDTAVYYCATGYYALYSRKPYKYNYWGQGTQVTVSS,high polyreactivity
16,QVQLVESGAGLVQAGGSLRLSCAASGFTFQNYAMGWYRQAPGKERELVAAIDSRGGRTYYADSVKGRFTISRDNAKNSVYLQMNSLKPEDTAVYYCAVAENKRFGSVGYYYWGQGTQVTVSS,low polyreactivity
